Measured values published in PMC4351431, “Pharmacokinetics of diluted (U20) insulin aspart compared with standard (U100) in children aged 3–6 years with type 1 diabetes during closed-loop insulin delivery: a randomised clinical trial” (Diabetologia, 2014).
Read-outs that look alike come from different tables or passages of the source.

What was measured:
[1] = Insulin aspart pharmacokinetics during closed-loop insulin delivery, two-compartment modelling of plasma insulin; parameters: species or system human; conditions: in vivo
Protocol: Children were admitted in the afternoon on two study visits, 2–6 weeks apart, at the Wellcome Trust Clinical Research Facility, Addenbrooke’s Hospital, Cambridge, to undergo closed-loop insulin delivery from 17:00 hours until 8:00 hours the following morning. On both occasions, the children consumed identical evening meals at 17:00 hours [44 ± 12 g carbohydrate] and optional bedtime snacks [6 ± 7 g carbohydrate]. Standard pump bolus calculators were used to calculate meal insulin boluses and basal rates on the insulin pump (Animas 2020, Johnson & Johnson, PA, USA) were adjusted every 15 min according to the output of a model predictive control algorithm informed by real-time continuous glucose monitoring values (Dexcom G4, Dexcom, CA, USA). Standard strength (100 U/ml) insulin aspart (Novo Nordisk, Bagsvaerd, Denmark) was infused at one visit and diluted aspart (0.9% saline [154 mmol/l NaCl] at 1:5 ratio, 20 U/ml) was administered at the other; the order of the two interventions was random. […]
Venous blood samples were taken at −30, 0, 30, 60, 90, 120, 180, 240, 300, 360, 420, 480, 540, 600, 660, 720, 780, 840 and 900 min relative to 17:00 hours for measuring the plasma insulin concentration. […] Plasma insulin was measured using an immunochemiluminometric assay (Invitron, Monmouth, UK; intra-assay CV 4.7%, interassay CV 7.2–8.1%; 100% cross reactivity with insulin aspart). Fasting C-peptide levels were measured at plasma glucose values above 6 mmol/l by ELISA (Mercodia, Uppsala, Sweden).
Aspart pharmacokinetics was assessed using a two-compartment model measuring the time-to-peak of plasma insulin concentration (t max), metabolic clearance rate of insulin (MCR I), and background plasma insulin concentration (ins c). […]
Differences between pharmacokinetic parameters were assessed by paired t test (for normally distributed variables) or the Wilcoxon signed-rank test (for non-normally distributed variables). […] The Spearman’s rank correlation evaluated correlations between pharmacokinetic and demographic indices. […]

[2] = cited from earlier work; for MCR I / ins c: published literature, closed-loop insulin delivery
Description: Similar estimates of MCR I and ins c were also found in the current study and published literature (1.94 vs 1.68 × 10^−2 vs 1.90 × 10^−2 1/kg/min for MCR I, 29 vs 28 vs 61 pmol/l for ins c). In the present study, MCR I values in the two visits were highly correlated (r = 0.918, p < 0.001), as were the ins c values ...

[3] = parameters: method as in PMID 23278690; conditions: pig, in vivo, sc; cited from earlier work

Substance: B28Asp human insulin [insulin aspart]
- mean value of t max in the present study ([1]; human): 60.4 min
- MCR I in the current study [1]: 19.4 mL/min/kg
- ins c in the current study [1]: 29 pmol/L
- t max ([2]; adults with type 1 diabetes, during closed-loop insulin delivery): 51 min
- t max ([2]; older children with type 1 diabetes, during closed-loop insulin delivery): 66 min
- MCR I ([2]; ref 7): 0.0168 kg⁻¹ min⁻¹
- ins c ([2]; ref 7): 28 pmol/L
- MCR I ([2]; ref 8): 0.019 kg⁻¹ min⁻¹
- ins c ([2]; ref 8): 61 pmol/L
- t max ([2]; type 1 diabetes, following insulin bolus injection): 49 min
- effect of concentration on insulin aspart pharmacokinetics [3]: no significant difference between U200, U100 and U20
